The text below walks through data of paper PMC5716075, “Conserved asymmetry underpins homodimerization of Dicer-associated double-stranded RNA-binding proteins” (Nucleic Acids Research, 2017).

Series [1] concerns the molecule itself. Kind of series: SEC-MALS; SEC-MALLS; Superdex S75 10/30 (except where otherwise noted), 20 mM MES pH 6.5, 200 mM NaCl, 1 mM dithiothreitol, 0.5 ml/minute; 100 μl of protein at 2–5 mg/ml injected. On the technique in general: Size exclusion chromatography separates by hydrodynamic size, large species first.
In series [2] the target is T1, full length (FL) PACT (protein activator of PKR) (human), O75569.
T1 chain: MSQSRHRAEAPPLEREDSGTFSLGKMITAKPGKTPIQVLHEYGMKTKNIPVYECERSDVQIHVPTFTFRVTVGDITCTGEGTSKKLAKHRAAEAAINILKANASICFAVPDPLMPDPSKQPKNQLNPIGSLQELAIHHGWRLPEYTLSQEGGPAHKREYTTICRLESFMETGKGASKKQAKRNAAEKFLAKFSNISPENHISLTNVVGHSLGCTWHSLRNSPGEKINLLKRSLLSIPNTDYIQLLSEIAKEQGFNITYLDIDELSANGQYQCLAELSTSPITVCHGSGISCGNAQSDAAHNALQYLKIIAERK
The description is as above. The following applies: remark: other sources report otherwise.

For orientation: stoichiometry N means the number of molecules, sites or subunits per partner or assembly.

B1: Loqs-D3 (Loquacious residues 392-463, dsRBD 3), wild type (domain or fragment, Drosophila, UniProt Q9VJY9 392-463, looked up)
chain: IDYIKLLGEIATENQFEVTYVDIEEKTFSGQFQCLVQLSTLPVGVCHGSGPTAADAQRHAAQNALEYLKIMT
notes: Loquacious (Loqs), Drosophila, residues 392-463 (dsRBD 3, Type B); also called WT Loqs-D3; source: E. coli BL21 (DE3), purified (GSTrap, tag removed with tobacco etch virus protease, size exclusion)
Consider B1, for which the “stoichiometry N” value in series [1] was 2.

B2: PACT-D3 (PACT residues 239-313, core dsRBD 3), wild type (domain or fragment, human, UniProt O75569 239-313, looked up)
chain: TDYIQLLSEIAKEQGFNITYLDIDELSANGQYQCLAELSTSPITVCHGSGISCGNAQSDAAHNALQYLKIIAERK
notes: Grown in M9 with 15N ammonium chloride (and 13C glucose for 3D NMR samples); also called WT PACT-D3; source: E. coli BL21 (DE3), purified (HisTrap, tag removed with 3C protease, Superdex S75); not shown: His6, N-terminal, cleaved; MBP, N-terminal, cleaved
For B2, in series [1], the “stoichiometry N” value was 2.

B3: R353H,R354N TRBP-Ext-D3 (PACT-like variant of TRBP-Ext-D3) (domain or fragment, human, UniProt Q15633 258-366, looked up)
chain: NRGPGCTWDSLRNSVGEKILSLRSCSLGSLGALGPACCRVLSELSEEQAFHVSYLDIEELSLSGLCQCLVELSTQPATVCHGSATTREAARGEAAHNALQYLKIMAGSK
notes: source: E. coli BL21 (DE3), purified (HisTrap, tag removed with 3C protease, Superdex S75); not shown: His6, N-terminal, cleaved; MBP, N-terminal, cleaved
For B3, the “stoichiometry N” value in series [1] was 2.

B4: full length (FL) PACT (protein activator of PKR), O75569 1-313 (natural protein)
chain: T1 chain
Turning to B4, in series [2], the stoichiometry N is 2.

B5: PACT-Ext-D3 (PACT residues 208-313, dsRBD 3 with the conserved N-terminal extension), wild type (domain or fragment, human, UniProt O75569 208-313, looked up)
chain: GHSLGCTWHSLRNSPGEKINLLKRSLLSIPNTDYIQLLSEIAKEQGFNITYLDIDELSANGQYQCLAELSTSPITVCHGSGISCGNAQSDAAHNALQYLKIIAERK
notes: also called WT PACT-Ext-D3; source: E. coli BL21 (DE3), purified (HisTrap, tag removed with 3C protease, Superdex S75); not shown: His6, N-terminal, cleaved; MBP, N-terminal, cleaved
With B5, in series [1], the “stoichiometry N” value came to 2.
